Test results taken from the supplement of paper PMC7125110.
± gives the standard error. Variants at the floor of the assay were thinned out.

B1: glmS ribozyme (parent)
chain: AUAAAAGCGCCAGAACUACAGAAAUGUAGUUGACGAGGAGGAGGUUUAUCGAAUUUUCGGCGGAUGCCUCCAAA

Assays:
Conditions in all cases: with glucosamine-6-phosphate
glucosamine-6-phosphate [1] = variants of: B1; experiment: self-cleavage kobs at 640 uM GlcN6P; higher = faster cleavage; RNA array
Outline: (§1)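 Sequenced MiSeq chips were the platform: E. coli RNA polymerase transcribed barcoded ribozyme variants on them in situ, and a hybridised Cy3 probe tracked these at 37 °C. After glucosamine-6-phosphate (40 μM to 10 mM) in HEPES/KCl/Mg(OAc)2 buffer was flowed in, tiles were imaged over ~14 h. Signals normalised to baseline and to non-cleaving reference variants were reduced to per-tile medians and fit to one- or two-exponential decays to obtain kobs. kcat and KM were derived through weighted Michaelis–Menten fits across concentrations.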

glucosamine-6-phosphate [2] = variants of: B1; experiment: self-cleavage kobs at 2500 uM GlcN6P; higher = faster cleavage; RNA array
Outline: as §1

glucosamine-6-phosphate [3] = variants of: B1; experiment: self-cleavage kobs at 10000 uM GlcN6P; higher = faster cleavage; RNA array
Outline: as §1

Row | Variant | self-cleavage kobs at 640 uM GlcN6P (glucosamine-6-phosphate [1]) | self-cleavage kobs at 2500 uM GlcN6P (glucosamine-6-phosphate [2]) | self-cleavage kobs at 10000 uM GlcN6P (glucosamine-6-phosphate [3])
1 | G41A U57C C67A | < 1e-05 s⁻¹ | < 1e-05 s⁻¹ | 
2 | C11U G29U A52C | < 1e-05 s⁻¹ |  | 
3 | G43A G44C C67A C70A | < 1e-05 s⁻¹ | < 1e-05 s⁻¹ | 
4 | A36G G51C C71G | < 1e-05 s⁻¹ | < 1e-05 s⁻¹ | 
5 | G13A C34A C67U C70G | < 1e-05 s⁻¹ | < 1e-05 s⁻¹ | 
6 | A6G A42C C58U | < 1e-05 s⁻¹ | < 1e-05 s⁻¹ | 
7 | G32U U55G C71U | 0.00014 ± 3.5e-05 s⁻¹ |  | 0.000518 ± 0.00011 s⁻¹
8 | C34G A39C U46A | < 1e-05 s⁻¹ |  | 
9 | C10U U45C C68A | < 1e-05 s⁻¹ |  | 
10 | G29U G51A A64U U69G | 0.000114 ± 3.7e-05 s⁻¹ | 0.000294 ± 9.7e-05 s⁻¹ | 
11 | C61U G66C | < 1e-05 s⁻¹ | < 1e-05 s⁻¹ | 
12 | C8G C10G A12U A14G G43A C58U | < 1e-05 s⁻¹ |  | 
13 | A15C G35U G41A U65C C68A | < 1e-05 s⁻¹ | < 1e-05 s⁻¹ | 
14 | U31G G32U G40A A48C | < 1e-05 s⁻¹ | < 1e-05 s⁻¹ | 
15 | U30G A33C G40C U54A A64C | < 1e-05 s⁻¹ | < 1e-05 s⁻¹ | 
16 | A15G U49G U65G C70A | 0.00349 ± 0.0014 s⁻¹ |  | 
17 | A12U C58U C61G G62C A64G U65A G66U C67G U69C C70U | 7.34e-05 ± 2.4e-05 s⁻¹ | 7.58e-05 ± 1.9e-05 s⁻¹ | 
18 | U31C G38U A39C G43U G62A U69G | < 1e-05 s⁻¹ |  | 
19 | G41C C50G G51C | < 1e-05 s⁻¹ |  | 
20 | A14U A48U G51A A52G | < 1e-05 s⁻¹ | < 1e-05 s⁻¹ | 
21 | C34U G43U A53G U55A A64U | < 1e-05 s⁻¹ | < 1e-05 s⁻¹ | 
22 | U31C G51C C71A | < 1e-05 s⁻¹ |  | 

Row | Variant | self-cleavage kobs at 640 uM GlcN6P (glucosamine-6-phosphate [1]) | self-cleavage kobs at 2500 uM GlcN6P (glucosamine-6-phosphate [2]) | self-cleavage kobs at 10000 uM GlcN6P (glucosamine-6-phosphate [3])
23 | G29U G41C A42U G63U | < 1e-05 s⁻¹ |  | 
24 | G7A C11G G40U | < 1e-05 s⁻¹ |  | 
25 | A36G U47G | < 1e-05 s⁻¹ |  | < 1e-05 s⁻¹
26 | C10A C67G C70A | 0.000293 ± 9.2e-05 s⁻¹ |  | 
27 | U47A A48C | 0.000145 ± 2.2e-05 s⁻¹ | 0.000222 ± 3.6e-05 s⁻¹ | 0.000561 ± 0.0001 s⁻¹
28 | C19A A48U | 6.44e-05 ± 2.3e-05 s⁻¹ |  | 
29 | A6G C50G C71G | 0.000369 ± 7.4e-05 s⁻¹ | 9.48e-05 ± 2.2e-05 s⁻¹ | 
30 | A15U A33U C70U | < 1e-05 s⁻¹ |  | 
31 | U31A C58G A64C C68U | 0.00011 ± 3.5e-05 s⁻¹ | 8.36e-05 ± 2.2e-05 s⁻¹ | 
32 | C16U U57G C68U | 3.89e-05 ± 1.6e-05 s⁻¹ |  | 
33 | C10U A33G U54A | < 1e-05 s⁻¹ |  | 
34 | G13C G37U G43C | < 1e-05 s⁻¹ | < 1e-05 s⁻¹ | 
35 | A15U G35U U46A | < 1e-05 s⁻¹ | < 1e-05 s⁻¹ | 
36 | A14G U69A C70A | 5.74e-05 ± 2.2e-05 s⁻¹ | 8.42e-05 ± 1.9e-05 s⁻¹ | 
37 | G9U A15C A42U | < 1e-05 s⁻¹ |  | 
38 | A36C G41U A64C | < 1e-05 s⁻¹ | < 1e-05 s⁻¹ | 
39 | G29C U31G A36U | < 1e-05 s⁻¹ |  | 
40 | G7A G32C G51U | < 1e-05 s⁻¹ |  | 
41 | A12G U45C C50U | < 1e-05 s⁻¹ | < 1e-05 s⁻¹ | 
42 | G9A C11A A14G C34G G35U A36U A48U U55C C67G U69C | < 1e-05 s⁻¹ |  | 
43 | A6U G37A U54A | < 1e-05 s⁻¹ |  | 
44 | G40C G43U U55C | < 1e-05 s⁻¹ | < 1e-05 s⁻¹ | 

Row | Variant | self-cleavage kobs at 640 uM GlcN6P (glucosamine-6-phosphate [1]) | self-cleavage kobs at 2500 uM GlcN6P (glucosamine-6-phosphate [2]) | self-cleavage kobs at 10000 uM GlcN6P (glucosamine-6-phosphate [3])
45 | G37C U57A A64C C71A | < 1e-05 s⁻¹ | < 1e-05 s⁻¹ | 
46 | G7U C16U U30G | < 1e-05 s⁻¹ |  | 
47 | G9A A42C G44A | < 1e-05 s⁻¹ | < 1e-05 s⁻¹ | 
48 | G29C A53G C68A | 0.000139 ± 5.9e-05 s⁻¹ | 9.57e-05 ± 3.7e-05 s⁻¹ | 
49 | G7U A39G U47C G59C | < 1e-05 s⁻¹ |  | 
50 | G38A G40C A42C A72U | < 1e-05 s⁻¹ |  | 
51 | U56C G66C | 6.26e-05 ± 2.2e-05 s⁻¹ | 8.66e-05 ± 2.4e-05 s⁻¹ | 
52 | C50A A52C C61A C68U | 0.000706 ± 0.00019 s⁻¹ |  | 
53 | A14U A15C A33U U49C C50G U69A | 0.0012 ± 0.00039 s⁻¹ | 0.000218 ± 9.1e-05 s⁻¹ | 
54 | G13A G32C G43C C68G | 7.7e-05 ± 2.2e-05 s⁻¹ | 0.000154 ± 5e-05 s⁻¹ | 
55 | A39U A42C A53U C58U | < 1e-05 s⁻¹ | < 1e-05 s⁻¹ | 
56 | C10G A12U U56G C71U | < 1e-05 s⁻¹ |  | 
57 | A14U A15G G37A | 0.000119 ± 2.8e-05 s⁻¹ | 0.000224 ± 4.9e-05 s⁻¹ | 
58 | G7C C10A G13A G37A U45A | < 1e-05 s⁻¹ | < 1e-05 s⁻¹ | 
59 | A15G A48U C70G | 5.16e-05 ± 1.9e-05 s⁻¹ | 6.9e-05 ± 1.6e-05 s⁻¹ | 
60 | U45G U49C | < 1e-05 s⁻¹ |  | < 1e-05 s⁻¹
61 | U49A G66A | < 1e-05 s⁻¹ |  | 
62 | G13U A15G G51C | < 1e-05 s⁻¹ | < 1e-05 s⁻¹ | 
63 | C8G G32U U47G C67G C68G | 0.000105 ± 3.3e-05 s⁻¹ | 4.39e-05 ± 2.1e-05 s⁻¹ | 
64 | G29A G38A U65G | < 1e-05 s⁻¹ | < 1e-05 s⁻¹ | 
65 | G35A A39G C61U | < 1e-05 s⁻¹ | < 1e-05 s⁻¹ | 
